Results: paper doi:10.1101/2023.05.28.542642 (bioRxiv, 2023)
Ends that are not written are not given here.

Target: calmodulin (recombinant bovine CaM) (bovine, UniProt P62157 1-149)
Assay: fluorescence polarisation

{BODIPY TR‑X}-KKKKKRFSFKKSFKLSGFSFKKNKK [MARCKS effector domain (aa 151-175) labeled with BODIPY TR]
binding result: binds
